Reference: US20170210824A1

Biological target: Peptide-3B (NME1 H118, 1-pTza) (mammalian)
Experiment: peptide dot blot array

lowest amount detected: 1 ng
Substance: 1-pHis mAb SC1-1 (antibody)
